T1: human Otoraplin, residues 18-128 (human, UniProt Q9NRC9 18-128)
T1 construct: Otoraplin, human, UniProt Q9NRC9, residues 18-128; [U-15N]-enriched for the NMR titrations; also called Otoraplin (18-128); not shown: His-tag, N-terminal, cleaved
T1 sequence (looked up): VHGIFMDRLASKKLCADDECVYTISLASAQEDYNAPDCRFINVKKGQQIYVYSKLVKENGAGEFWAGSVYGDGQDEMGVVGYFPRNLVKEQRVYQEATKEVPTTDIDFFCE


Legend:
[1] = molecular target: Collagen type IV from human placenta (human) (UniProt P08572); experiment: MST; RED-NHS-labeled collagen type IV constant at 25 nM, unlabeled partner varied (16 1:1 dilutions); 10 mM HEPES pH 7.2, 150 mM NaCl, 0.005% Tween-20, 15 µM BSA; 25 °C; 60% LED power, high MST power, MST-on time 1.5 s
[2] = molecular target: human TANGO1 cargo-recognition (MOTH) domain, residues 21-131 (human, UniProt Q5JRA6-4 21-131, disulfides Cys38-Cys43 and Cys61-Cys124; cis-Pro83; His-tag removed with TEV (PDB 7R3M entity has one extra N-terminal Met); 15N or 15N/13C labelled for NMR); experiment: NMR titration; 1H-15N HSQC series of 208 µM [U-15N]-hsTANGO1(21-131) with peptide 132-151 at ratios 1:0.25 to 1:6; 25 mM HEPES pH 7.4, 150 mM NaCl, 298 K; two-dimensional lineshape analysis (TITAN), two-state binding model; conditions: both partners purified
Chain of human TANGO1 cargo-recognition (MOTH) domain, residues 21-131 (Q5JRA6 other isoform, or with tags, fused parts or gaps): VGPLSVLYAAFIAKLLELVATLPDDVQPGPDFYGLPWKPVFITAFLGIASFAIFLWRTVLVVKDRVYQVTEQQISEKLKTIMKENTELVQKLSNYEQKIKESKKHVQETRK

[3] = molecular target: T1, human Otoraplin, residues 18-128; experiment: NMR titration; 1H-15N HSQC series of [U-15N]-Otoraplin with SOS1 (1149-1158) at protein:peptide ratios 1:0.5 to 1:50; PBS pH 7.4, 298 K; two-dimensional lineshape analysis (TITAN), two-state binding model; conditions: both partners purified

| Kd [1] [µM] | Binder | other results |
| --- | --- | --- |
| 9.9 | human Otoraplin, residues 18-128 (domain or fragment) VHGIFMDRLASKKLCADDECVYTISLASAQEDYNAPDCRFINVKKGQQIYVYSKLVKENGAGEFWAGSVYGDGQDEMGVVGYFPRNLVKEQRVYQEATKEVPTTDIDFFCE |  |
| 3.3 | human TANGO1 MOTH domain with C-terminal helix, residues 21-151 (domain or fragment) PGQLDPSTGRRFSEHKLCADDECSMLMYRGEALEDFTGPDCRFVNFKKGDPVYVYYKLARGWPEVWAGSVGRTFGYFPKDLIQVVHEYTKEELQVPTDETDFVCFDGGRDDFHNYNVEELLGFLELYNSAA |  |
|  | FHNYNVEELLGFLELYNSAA (peptide, UniProt Q5JRA6 132-151, looked up, TANGO1, human, UniProt Q5JRA6, residues 132-151; also called C-terminal helix peptide; peptide corresponding to residues 132–151; source: synthetic peptide) [synthetic peptide of human TANGO1 residues 132-151 (predicted C-terminal helix)] | Kd [2]: 321 µM; koff [2]: 1100 s⁻¹ |
|  | VPPPVPPRRR (peptide, UniProt Q07889 1149-1158, looked up, SOS1, residues 1149-1158; also called class II ligand; PPII class II ligand; source: synthetic peptide) [SOS1 (1149-1158), class II PPII helix peptide] | Kd [3]: 1300 µM; koff [3]: 350000 s⁻¹ |
| 6.9 | Drosophila melanogaster TANGO1 cargo-recognition domain, residues 30-139 (domain or fragment) TLTWAATLSDKRLCADPKCEQIISMGIAKITYAIGGEGLISFKINSPIRVLSKSAGSNMQLWGVDINGRRGYANKDFIMEKKILVRDKDLLYEVPVVGPGSPVQSVETPV |  |
| 11.4 | human TALI MOTH domain, residues 23-123 (domain or fragment) TKLLADLKKCGDLECEALINRVSAMRDYRGPDCRYLNFTKGEEISVYVKLAGEREDLWAGSKGKEFGYFPRDAVQIEEVFISEEIQMSTKESDFLCLLGVS |  |

— publication PMC10119292, “Characterization of a fold in TANGO1 evolved from SH3 domains for the export of bulky cargos” (Nature Communications, 2023)
